Results: patent US20230095569A1 (ANTENGENE BIOLOGICS, published 2023)

Key:
[1] = biological target: T1, human Claudin18.2 (CLDN18.2) (human, UniProt P56856 1-261); experiment: FACS on CHOK1-18.2 cells;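 for FACS MFI: antibody binding to the cells detected with a fluorescently labelled secondary antibody and read out as median fluorescence intensity by flow cytometry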
T1 construct: the cell line is named under assay; also called human Claudine18.2; hClaudin18.2

[2] = biological target: T1, human Claudin18.2 (CLDN18.2); experiment: cell-based or functional assay
[3] = biological target: T1, human Claudin18.2 (CLDN18.2); experiment: FACS on GAXC031 cells, antibody at 50 µg/ml
[4] = biological target: T1, human Claudin18.2 (CLDN18.2); experiment: cell-based or functional assay; remark: listed apart in the source
[5] = biological target: T1, human Claudin18.2 (CLDN18.2); experiment: FACS on CHOK1-18.2 cells, antibody at 50 µg/ml
[6] = biological target: T1, human Claudin18.2 (CLDN18.2); experiment: cell-based or functional assay; remark: listed apart in the source
[7] = biological target: T1, human Claudin18.2 (CLDN18.2); experiment: FACS on GAXC031 cells
[8] = biological target: T2, human Claudin18.1 (CLDN18.1) (human, UniProt P56856 1-261); experiment: FACS on CHOK1-18.1 cells;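 note: test antibody binding to the cells detected by flow cytometry using a fluorescent dye-labelled secondary antibody, read out as median fluorescence intensity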
T2 construct: whole, on cells; also called human Claudine18.1
Protocol: (§1) The specificity and cross-reactivity of these subclones were confirmed with FACs analysis. […] Fluorescent dye-conjugated secondary antibody was used to detect the binding of the primary antibody with the cells. Median fluorescence intensity (MFI) was measured by FACs analysis.

[9] = biological target: T2, human Claudin18.1 (CLDN18.1); experiment: FACS (FIGS. 1A and 1B)
[10] = biological target: T1, human Claudin18.2 (CLDN18.2); experiment: FACS on CHOK1-18.2 cells; remark: listed apart in the source;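 for FACS MFI: antibody binding to the cells detected with a fluorescently labelled secondary antibody and read out as median fluorescence intensity by flow cytometry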
Protocol: as §1

B1: chAb20 (antibody, V domains shown)
VH: EVMLVESGGGLVKPGGSLKLSCVASGFTFSSYTMSWVRQTPEKRLEWVATIIGGYGNTYYSDSVKGRITISRDSAKNTLYLQMISLRSEDTALYYCTRLGQTQRNAMDYWGQGTSVTVSS
VL: DILMTQSPSSLSVSAGEKVTMNCKSSQSLLNSGNQKNYLAWYQQKPGQPPKLLIYGASTRESGVPDRFTGSGSGTDFTLTISSVQAEDLAVYYCQNDYYYPFTFGAGTKLEL
**Q.** With B1 as the binder, how does the EC50 [1] read?
**A.** 3.88 nM

**Q.** What about the “CDC EC50” value [2] of the same binder?
**A.** 8.82 nM

**Q.** And the “Max CDC induced tumor cell killing (% of control)” value [2]?
**A.** 73 % of control

**Q.** And the “MAX MFI” value [3]?
**A.** 6260

**Q.** What about the “ADCC EC50” value [4] of the same binder?
**A.** 4.14 nM

**Q.** And the “Max tumor cell killing (% of control), ADCC” value [4]?
**A.** 62.9 % of control

**Q.** What about the “MAX MFI” value [5] of the same binder?
**A.** 65700

**Q.** And the “IC50 of indirect ADC cytotoxicity” value [6]?
**A.** 0.47 nM

**Q.** What about the Max inhibition % [6] of the same binder?
**A.** 92.8%

**Q.** And the EC50 [7]?
**A.** 42.9 nM

B2: Ab10 (antibody, V domains shown)
VH: EVMLVESGGGLVKPGGSLKLSCAASGFTFSSYTMSWVRQTPEKRLEWVATISVIGGNTYYVDSVKGRFTISRDKAKNTLYLQMSSLRSEDTALYYCARLGQTQRNAMDYWGQGTSVTVSS
VL: DIVMTQSPSSLSVSAGEKVTMSCKSSQSLLNSGNQKNYLAWYQQKPGQPPKLLIYGASTRESGVPDRFTGSGSGTDFTLTISSVQAEDLAVYYCQNDYSYPLTFGAGTKLELK
notes: mouse monoclonal (hybridoma)
**Q.** What does the source list for B2?
**A.** FACS MFI [8]: 80.8; binding result [9]: no binding; FACS MFI [10]: 8400

B3: chAb10 (antibody, V domains shown)
VH: EVMLVESGGGLVKPGGSLKLSCAASGFTFSSYTMSWVRQTPEKRLEWVATISVIGGNTYYVDSVKGRFTISRDKAKNTLYLQMSSLRSEDTALYYCARLGQTQRNAMDYWGQGTSVTVSS
VL: DIVMTQSPSSLSVSAGEKVTMSCKSSQSLLNSGNQKNYLAWYQQKPGQPPKLLIYGASTRESGVPDRFTGSGSGTDFTLTISSVQAEDLAVYYCQNDYSYPLTFGAGTKLELK
**Q.** For B3, which EC50 [1] is on record?
**A.** 2.27 nM

**Q.** And the “CDC EC50” value [2]?
**A.** 2.69 nM

**Q.** What about the “Max CDC induced tumor cell killing (% of control)” value [2] of the same binder?
**A.** 82.7 % of control

**Q.** What about the “MAX MFI” value [3] of the same binder?
**A.** 6940

**Q.** What about the “ADCC EC50” value [4] of the same binder?
**A.** 1.68 nM

**Q.** What about the “Max tumor cell killing (% of control), ADCC” value [4] of the same binder?
**A.** 55.2 % of control

**Q.** And the “MAX MFI” value [5]?
**A.** 80400

**Q.** And the “IC50 of indirect ADC cytotoxicity” value [6]?
**A.** 0.24 nM

**Q.** What about the Max inhibition % [6] of the same binder?
**A.** 92.8%

**Q.** What about the EC50 [7] of the same binder?
**A.** 29.2 nM

B4: chAb15 (antibody, V domains shown)
VH: EVMLVESGGDLVKPGGSLKLSCAASGFTFSTYTMSWVRQTPEKRLEWVATIVGGGGYTYYLDSVKGRFTISRDNAKNTLYLQMISLRSEDTALYYCARMGLTQRNALDYWGQGTSITVSS
VL: DIVMTQSPSSLSVSEGEKVTLNCKSSQSLFNSGNQKNYLAWYQQKPGQPPKLLIYGASTRESGVPDRFTGSGFGTDFTLTISSVQAEDLAVYYCQNDHTYPLTFGAGAKLELK
**Q.** For B4, which EC50 [1] is on record?
**A.** 4.64 nM

**Q.** What about the “CDC EC50” value [2] of the same binder?
**A.** 8.15 nM

**Q.** What about the “Max CDC induced tumor cell killing (% of control)” value [2] of the same binder?
**A.** 77.4 % of control

**Q.** What about the “MAX MFI” value [3] of the same binder?
**A.** 6110

**Q.** What about the “ADCC EC50” value [4] of the same binder?
**A.** 2.65 nM

**Q.** And the “Max tumor cell killing (% of control), ADCC” value [4]?
**A.** 36.5 % of control

**Q.** And the “MAX MFI” value [5]?
**A.** 94000

**Q.** What about the “IC50 of indirect ADC cytotoxicity” value [6] of the same binder?
**A.** 0.38 nM

**Q.** And the Max inhibition % [6]?
**A.** 92.4%

**Q.** What about the EC50 [7] of the same binder?
**A.** 31.9 nM
